Results taken from patent publication US20130164251A1 (JIANGSU T MAB BIOPHARMA, published 2013).
Where two headings read alike, the source gives them in different places. Values belong to the molecule of their own block, whether it stands above or below them.

Legend:
Experiment in all cases: SPR (Biacore 3000), G-CSFR amine-coupled to CM5 chip, 1:1 Langmuir fit
[1] = target: G-CSF receptor G-CSFR (R & D company, Item No. 381GR/CF) (UniProt Q99062)
[2] = target: T1, G-CSF receptor G-CSFR (R & D company, Item No. 381GR/CF) (UniProt Q99062 25-621, limits assumed)
T1 construct: Bought reagent, amine-coupled to a CM5 chip; also called the receptor
T1 sequence (looked up): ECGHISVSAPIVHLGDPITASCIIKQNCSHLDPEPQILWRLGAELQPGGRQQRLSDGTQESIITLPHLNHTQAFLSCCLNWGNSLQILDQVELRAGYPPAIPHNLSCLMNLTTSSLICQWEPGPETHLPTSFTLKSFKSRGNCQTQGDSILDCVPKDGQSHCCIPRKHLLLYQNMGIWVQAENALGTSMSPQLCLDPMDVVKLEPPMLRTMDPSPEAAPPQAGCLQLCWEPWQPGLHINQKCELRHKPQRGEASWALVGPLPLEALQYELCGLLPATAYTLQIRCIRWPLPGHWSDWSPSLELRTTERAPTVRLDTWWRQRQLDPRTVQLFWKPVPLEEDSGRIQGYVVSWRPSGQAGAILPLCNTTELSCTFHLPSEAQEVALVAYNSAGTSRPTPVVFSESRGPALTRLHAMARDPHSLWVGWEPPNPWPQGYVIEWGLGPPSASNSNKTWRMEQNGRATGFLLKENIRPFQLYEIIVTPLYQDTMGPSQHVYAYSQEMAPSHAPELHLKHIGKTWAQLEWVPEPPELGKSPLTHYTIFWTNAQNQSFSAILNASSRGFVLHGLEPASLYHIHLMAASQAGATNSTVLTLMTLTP
Description: (§1) The receptor G-CSFR (R & D company, Item No. 381GR/CF) was coupled to FC₄ cell of a CM5 chip by using an amine coupling method in Biacore® 3000 control software Wizard. HBS-P buffer (10 mM HEPES, 150 mM NaCl, and 0.005% (v/v) surfactant P20, pH 7.4) was used as the working buffer, and 1 mg/mL of G-CSFR was diluted with 10 mM NaAC (pH 4.5) to a final concentration of 20 μg/mL. A 1:1 mixture of 0.2 M EDC and 50 mM NHS was injected by flowing through the surface of the chip at a rate of 10 μL/min, G-CSFR solution was injected, then 1 M ethanolamine (pH 8.5) was injected for 7 min to block the activated chip surface.
(§2) rHSA/mG-CSF and G-CSF standards were quantitatively diluted with a HBS-P buffer, and a kinetic test was conducted following a kinetic analysis Wizard in Biacore® 3000 control software. All the samples were injected at the flow rate of 30 μL/min, and the injection time of 3 min. After 5 min of disassociation, 50 mM NaOH, 1 M NaCL, and HBS-P buffer were respectively injected for 15 s and 60 s at a flow rate of 100 μL/min for regeneration. The obtained data was fitted using a 1:1 Langmuir binding model in Biacore 3000 analysis software, to obtain exact kinetic constants: […]

[3] = target: T1, G-CSF receptor G-CSFR (R & D company, …); remark: listed apart in the source
Description: as §1, §2

Kd [1]: 11.2 nM
Molecule: rHSA/G-CSF mutant L19I (from UniProt P09919 31-207) (ligand)

Kd [1]: 1.3 nM
Molecule: recombinant human serum albumin-granulocyte-colony stimulating factor fusion protein (rHSA/G-CSF) (ligand)

Kd [2]: 0.3 nM | Kd [3]: 0.3 nM
B1: human granulocyte-colony stimulating factor (G-CSF) (ligand)
chain: TPLGPASSLPQSFLLKCLEQVRKIQGDGAALQEKLCATYKLCHPEELVLLGHSLGIPWAPLSSCPSQALQLAGCLSQLHSGLFLYQGLLQALEGISPELGPTLDTLQLDVADFATTIWQQMEELGMAPALQPTQGAMPAFASAFQRRAGGVLVASHLQSFLEVSYRVLRHLAQP
notes: also called G-CSF standards
